Results published in publication doi:10.1101/2024.12.06.627168.

Tests used:
MYC 304-354 WT (RBRIII) = MYC 304-354 WT (RBRIII) (UniProt P01106-1 304-354); experiment: fluorescence anisotropy
MYC 304-354 RBRIIIMUT = MYC 304-354 RBRIIIMUT (UniProt P01106-1 304-354, R316A;K317A;R331A;R334A;R340A;K341A); experiment: fluorescence anisotropy

Sequence of MYC 304-354 WT (RBRIII) (P01106 319-369): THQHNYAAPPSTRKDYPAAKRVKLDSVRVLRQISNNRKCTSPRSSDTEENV

## GUGCAUGGGCAUGUGUGCUGUGUGUGUGCAGGCGACCGUAAACA (ssRNA) [PTDSS2 RNA oligo]
MYC 304-354 WT (RBRIII)
  binding result: binds
MYC 304-354 RBRIIIMUT
  binding result: no binding
